# US20250289897A1, “LEPTIN RECEPTOR AGONISTIC ANTIBODY AS MONO OR COMBO THERAPIES TO TREAT OBESITY” (ELI LILLY AND COMPANY, priority 2024, published 2025)
# Biological target: T1, human LEPR (Homo sapiens, UniProt P48357)
# T1 construct: introducing DNA plasmids encoding full-length LEPR of different species and STAT3-luciferase reporter gene into HEK293 cells; expressed in transfected cells; host or cells: HEK293 (HEK293-STAT3Luc-hLepR1)
# T1 sequence (P48357 22-1165): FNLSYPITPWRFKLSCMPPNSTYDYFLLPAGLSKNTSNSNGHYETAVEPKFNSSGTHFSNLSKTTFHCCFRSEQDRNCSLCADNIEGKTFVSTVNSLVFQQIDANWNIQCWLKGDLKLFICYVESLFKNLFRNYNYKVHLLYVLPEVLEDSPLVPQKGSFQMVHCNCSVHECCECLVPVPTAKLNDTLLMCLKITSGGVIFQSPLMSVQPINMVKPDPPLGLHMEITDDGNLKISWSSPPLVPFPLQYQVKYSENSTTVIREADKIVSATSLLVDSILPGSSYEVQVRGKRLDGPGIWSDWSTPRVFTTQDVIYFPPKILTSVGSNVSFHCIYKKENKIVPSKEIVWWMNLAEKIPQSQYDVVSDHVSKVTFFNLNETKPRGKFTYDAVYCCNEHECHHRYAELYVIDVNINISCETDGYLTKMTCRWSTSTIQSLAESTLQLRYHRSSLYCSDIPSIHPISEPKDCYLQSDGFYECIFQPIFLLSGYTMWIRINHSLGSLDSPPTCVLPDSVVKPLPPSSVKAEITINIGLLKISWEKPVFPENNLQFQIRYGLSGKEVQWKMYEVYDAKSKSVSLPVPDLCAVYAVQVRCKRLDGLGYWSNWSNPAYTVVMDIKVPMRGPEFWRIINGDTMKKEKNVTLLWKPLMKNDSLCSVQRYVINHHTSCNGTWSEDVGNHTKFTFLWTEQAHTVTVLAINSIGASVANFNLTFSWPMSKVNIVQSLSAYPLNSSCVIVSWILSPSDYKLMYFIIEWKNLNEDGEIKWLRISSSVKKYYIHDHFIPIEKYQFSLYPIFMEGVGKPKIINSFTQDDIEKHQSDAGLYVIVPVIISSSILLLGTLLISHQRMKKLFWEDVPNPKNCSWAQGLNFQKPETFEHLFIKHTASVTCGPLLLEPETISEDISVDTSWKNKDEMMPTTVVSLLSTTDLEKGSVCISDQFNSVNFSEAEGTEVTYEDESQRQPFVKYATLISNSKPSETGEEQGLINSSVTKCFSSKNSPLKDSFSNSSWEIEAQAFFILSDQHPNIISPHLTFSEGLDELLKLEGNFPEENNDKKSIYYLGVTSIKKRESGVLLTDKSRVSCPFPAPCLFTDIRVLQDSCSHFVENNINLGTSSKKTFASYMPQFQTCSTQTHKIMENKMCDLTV
# Assay: STAT3-luciferase reporter assay in HEK293-STAT3Luc-hLepR1 cells
# Assay type: cell-based
# Source text: LEPR is a cell surface single-pass transmembrane receptor. Activation of LEPR leads to phosphorylation of intracellular STAT3 (pSTAT3) and subsequent target gene transcription. To measure LEPR activation by anti-LEPR antibodies in the present disclosure, five independent STAT-luciferase reporter cell lines were established by introducing DNA plasmids encoding full-length LEPR of different species and STAT3-luciferase reporter gene into HEK293 cells (Table 4). […]
# Before plating the cells for luciferase assays, the poly-D-Lysine coated 96-well plates (Corning Inc, #354651) were rinsed once with phosphate buffered solution (PBS). […] Cell lysing and One-Glo luciferase substrate solution (Promega, #E6120) were then added to each well, and relative luciferase units (RLUs) were measured on a ClarioStar plate reader. For each reporter cell line, positive control LEPR activation was calculated as the average RLUs stimulated by 20 nM recombinant human leptin protein (SEQ ID NO:27) minus the average RLUs of unstimulated cells and was set as maximum LEPR activation (100%). […]
substance,measurement,setting,value
"human leptin: recombinant human leptin protein (SEQ ID NO:27), positive control",EC50,"STAT3-luciferase, 20 hours, read-out: EC50 (nM) ± SEM",0.0491 ± 0.0044 nM
same,Agonism (%) ± SEM,top of fitted curve vs response to 20 nM recombinant human leptin,105.83%
